Patent US20200181597A1, “Composition and Application of Arginine-depleting Agents for Cancer, Obesity, Metabolic Disorders, and Related Complications and Comorbidities” (THE HONG KONG POLYTECHNIC UNIVERSITY, priority 2018, published 2020)

Columns and labels:
Assay type in all cases: in vivo, C57BL/6J male mice
[1] = LFD-fed mice treated for 8 months: anti-drug antibody and safety
Description: FIG. 56 illustrates that C57BL/6J male mice fed a LFD and received an intraperitoneal injection of 500U N-ABD094-rhArg (SEQ ID NO: 50) [LFD(rhArg) group] once a week for 8 months starting from 5 week old had developed non-neutralizing anti-drug antibody. (A) Using an ELISA assay, anti-rhArg antibodies, with an average antibody titer of 10^8, could be detected in the plasma of LFD-fed mice treated with N-ABD094-rhArg. (B) The plasma was incubated with 1,000U/mL N-ABD094-rhArg (rhArg*) for 1 hr followed by measurement of arginase activity. There was no reduction in arginase activity, showing that the antibodies generated in the animal against the drug were not neutralizing antibodies. Data are expressed as mean±SEM, n=3 for each group.
Generation of neutralizing antibodies may affect the pharmacodynamics, pharmacokinetic, stability and efficacy of a drug. To determine the immunogenic response, 8 week old C57BL/6J male mice fed a LFD received i.p. injection of 500U of N-ABD094-rhArg (SEQ ID NO: 50), or saline as vehicle control, at 7-day intervals for 8 months.
To assess the safety of long-term use, serum and urine samples from LFD-fed mice treated with N-ABD094-rhArg (SEQ ID NO: 50) for 8 months were collected for analysis of ALT and AST, which are commonly used biomarkers of liver damage, and serum creatinine and urine albumin/creatinine ratio for assessing kidney functions.

[2] = DIO mice treated with 600U for 20 weeks
Description: Together, these findings support that N-ABD094-rhArg (SEQ ID NO: 50) is safe and effective for long term use.

plasma arginine = assay: Plasma arginine after single i.p. 500U N-ABD094-rhArg (LC-MS/MS)
Description: Each time point represents mean±SEM of 5 mice.
Fifty C57BL/6J male mice (10-12 weeks of age) were used in this study. A single dose of 500U N-ABD094-rhArg (SEQ ID NO: 50) was administered to the mouse via i.p. injection. Blood samples were collected from the saphenous vein using heparinized capillary tubes, and were centrifuged at 800×g to obtain plasma.
Following injection, serum was collected at Hour 2, Hour 4, Hour 8, Hour 16, Hour 24 (Day 1) and from Day 2 to Day 12 at 24-hour intervals, and from Day 12 to Day 30 at 72-hour intervals. To strike a balance between the number of animals used and to minimize the effect on results of pharmacokinetics and pharmacodynamics study caused by removal of N-ABD094-rhArg (SEQ ID NO: 50) from the mouse as a consequence of blood collection, mice were divided into 10 groups, with n=5 in each group, and subjected to blood collection at the indicated time-point(s) shown in brackets: Group 1 (Hour 2), Group 2 (Hour 4), Group 3 (Hour 8), Group 4 (Hour 16), Group 5 (Hour 24), Group 6 (Day 2, Day 7, Day 12), Group 7 (Day 3, Day 8, Day 18), Group 8 (Day 4, Day 9, Day 21), Group 9 (Day 5, Day 10, Day 15, Day 24), Group 10 (Day 0, Day 6, Day 11, Day 27, Day 30).

B1: N-ABD094-rhArg: albumin binding domain ABD094 fused N-terminally to recombinant human arginase I, SEQ ID NO: 50 (protein)
chain: MHHHHHHDEAVDANSLAEAKEAANAELDSYGVSDFYKRLIDKAKTVEGVEALKDAILAALPSGSNNNNNNGSGGMSAKSRTIGIIGAPFSKGQPRGGVEEGPTVLRKAGLLEKLKEQECDVKDYGDLPFADIPNDSPFQIVKNPRSVGKASEQLAGKVAEVKKNGRISLVLGGDHSLAIGSISGHARVHPDLGVIWVDAHTDINTPLTTTSGNLHGQPVSFLLKELKGKIPDVPGFSWVTPCISAKDIVYIGLRDVDPGEHYILKTLGIKYFSMTEVDRLGIGKVMEETLSYLLGRKKRPIHLSFDVDGLDPSFTPATGTPVVGGLTYREGLYITEEIYKTGLLSGLDIMEVNPSLGKTPEEVTRTVNTAVAITLACFGLAREGNHKPIDYLNPPK
modifications: Mn2+; N-ABD094-rhArg, Synthesized in the Lab
average anti-rhArg antibody titer in plasma (ELISA) ([1]; 500U i.p. weekly for 8 months): 10^8
serum ALT, AST, creatinine and urine albumin/creatinine ratio vs vehicle ([1]; 500U weekly for 8 months): did not show any significant differences
plasma arginine concentrations throughout the study period ([1]; 500U weekly for 8 months, Biochrom 30 detection limit): < 3 µM
vascular reactivity of isolated arteries (phenylephrine, acetylcholine, sodium nitroprusside) vs vehicle ([1]; 500U weekly for 8 months, wire myography): no significant differences
effect of anti-drug antibodies on arginase activity ([1]; plasma incubated with 1,000U/mL drug for 1 hr): did not have neutralizing effects
plasma arginine concentrations ([2]; 600U for 20 weeks, Biochrom 30 detection limit): < 3 µM
bodyweight ([2]; 600U, by 5 weeks, maintained to 20 weeks without rebound): reduced to a level similar to the lean control mice
plasma arginine concentration reached within 2 hour after injection (plasma arginine; 500U i.p.): 1 µM
Plasma arginine concentrations (Mean of 5 mice ± SEM) (plasma arginine; Day 2 after i.p. 500U): 0.944 ± 0.007 µM
Plasma arginine concentrations (Mean of 5 mice ± SEM) (plasma arginine; Day 3 after i.p. 500U): 0.965 ± 0.008 µM
Plasma arginine concentrations (Mean of 5 mice ± SEM) (plasma arginine; Day 4 after i.p. 500U): 0.535 ± 0.121 µM
Plasma arginine concentrations (Mean of 5 mice ± SEM) (plasma arginine; Day 5 after i.p. 500U): 0.681 ± 0.043 µM
Plasma arginine concentrations (Mean of 5 mice ± SEM) (plasma arginine; Day 6 after i.p. 500U): 0.896 ± 0.089 µM
Plasma arginine concentrations (Mean of 5 mice ± SEM) (plasma arginine; Day 7 after i.p. 500U): 0.792 ± 0.135 µM
Plasma arginine concentrations (Mean of 5 mice ± SEM) (plasma arginine; Day 8 after i.p. 500U): 0.916 ± 0.079 µM
Plasma arginine concentrations (Mean of 5 mice ± SEM) (plasma arginine; Day 9 after i.p. 500U): 1.224 ± 0.178 µM
Plasma arginine concentrations (Mean of 5 mice ± SEM) (plasma arginine; Day 10 after i.p. 500U): 0.721 ± 0.054 µM
Plasma arginine concentrations (Mean of 5 mice ± SEM) (plasma arginine; Day 11 after i.p. 500U): 3.828 ± 1.511 µM
Plasma arginine concentrations (Mean of 5 mice ± SEM) (plasma arginine; Day 12 after i.p. 500U): 7.607 ± 2.325 µM
Plasma arginine concentrations (Mean of 5 mice ± SEM) (plasma arginine; Day 15 after i.p. 500U): 31.283 ± 4.569 µM
Plasma arginine concentrations (Mean of 5 mice ± SEM) (plasma arginine; Day 18 after i.p. 500U): 48.648 ± 3.989 µM
Plasma arginine concentrations (Mean of 5 mice ± SEM) (plasma arginine; Day 21 after i.p. 500U): 73.55 ± 3.76 µM
Plasma arginine concentrations (Mean of 5 mice ± SEM) (plasma arginine; Day 24 after i.p. 500U): 76.07 ± 4.92 µM
Plasma arginine concentrations (Mean of 5 mice ± SEM) (plasma arginine; Day 27 after i.p. 500U): 111.09 ± 6.21 µM
Plasma arginine concentrations (Mean of 5 mice ± SEM) (plasma arginine; Day 30 after i.p. 500U): 110.91 ± 3.81 µM
Plasma arginine concentrations (Mean of 5 mice ± SEM) (plasma arginine; Hour 2 after i.p. 500U): 1.007 ± 0.013 µM
Plasma arginine concentrations (Mean of 5 mice ± SEM) (plasma arginine; Hour 4 after i.p. 500U): 0.934 ± 0.021 µM
Plasma arginine concentrations (Mean of 5 mice ± SEM) (plasma arginine; Hour 8 after i.p. 500U): 0.912 ± 0.006 µM
Plasma arginine concentrations (Mean of 5 mice ± SEM) (plasma arginine; Hour 16 after i.p. 500U): 0.943 ± 0.010 µM
Plasma arginine concentrations (Mean of 5 mice ± SEM) (plasma arginine; Hour 24 after i.p. 500U): 0.934 ± 0.007 µM
